Assay: label from the status in PepcDB records

Row | Sequence | protein production
1 | MATVEEIEKYCRNCVSRDFVNGKGLVCKRTRELPDFDEECENFEKDEELLKMAPPKPDDFPVSMTEEELLAEENLPKGVLYASVACILGAVAWSLISVSTGLQMGYMAIGVGFLVGFAMRQGKGIRPVFGLLGAALALISCVLGDFLSIIGFAAKDYDMTFFEVLAGVDYGEIFSVMVKNVVSMSALFYGIAVYEGYKLSFRAQKHPVGGKI | failed
2 | MAVARHETGPFATVSALASQVHPVFMLPPLATSLFGGLLSGGFWPPVAVLHAGAMFFAVYTAHVKDGYVDFHVRGEDDDHPLTGAGCRMALVGAGVGFALCTAAIWLLVGPGAALLTLPTWIIGYTHAPQLDMNPVGATMGYPAGIALALLGGYYAQVTTLTPRAVGLAAVFLLLLTGIKIIDDEQDYDYDRSIQKRTVAVVLGHQRARQLALGLFGVALLGIVGLSVALPGIPPSAAAAALVFGAVAAIAQRGDPETATMLLIRGSYLLLAVLVTAVWFRPLA | failed
3 | MAVDDSEEGKPAESEAPLDLLQDWEHARAHAVPFSDSLLTECILVDQECVTNTKIKQEVNASSGCNTTPDSNTQDSDKIDYIESMDVCSNVEIESTEDSIVTGLNSGNAEDVDMTPGWRRKRNQKSKKSYIGTKDVLDQTLDKDIPLNKQNRRFPITARPVKRECVKKYERETFENGNERVYSTSSPRGRVYLLNDAAKL | failed
4 | MAVESAAVGVFDSGVGGLSVLREIRARLPSESLLYVADNAHVPYGEKSAEYIRERCERIGDFLLEQGAKALVLACNTATAAAAAELRERYPQVPLVAMEPAVKPAAAATRNGRVGVLATTGTLKSARFAALLDRFASDVQVFTQPCPGLVERIEAGDLYGPQTRALLERLLAPILEQGCDTLILGCTHYPFVKPLLAELIPAEMAVIDTGAAVARQLERVLSARALLASGQAATPRFWTSALPEEMERILPILWGSPESVGKLVV | failed
5 | MAVEVVYRSSRDPERLFMDKAEADRHDKMLELAERLAEVLHKAVPSLTEQQVEEAGIYMAKNRDVFARAFKSQPDALAELLEGTAAE | not failed
6 | MAVQENLLLGAKASKNATLTLVFLSILKGVVGFYSGSASLIADAIHTSLDIFTSLAVWIGLKLSMRGSEEKFPYGYYKADNLVSLFVSIIILFSGVELVREALLNIASPVEIKLQGIALGTAVFSVIAMYALSQYKFKVGKQIDSQALIADALHSYTDVFSSLIVAITIIGSLLGVLWLDSAGVLVISLMIFKLGIGMAKDSILTLMDAWLDKDSIERIRQNVGSIQGVKTVDEIRLRKSGLVVFGEIEIEIEGDASLKRVEMLFEEIEKTVKNEVKNLEHLVVNVKPEKISVMKIAVPVLMQEGLHSKVSRHFSKAPYFIFIELENNDIISWDVSENPAAGLEKKKGLKAAEFLKDQGVNVLIAGEIGEAPFHTLRDNFVKLLQMPEEIEDVEQVVKKVSELNTLTAPTE | failed
7 | MAVTRRLLMAVVGLFSLLVYFTAAYVGYLLLLPVWDSRPSPLMAALFVLGTAIALGVVNYWAATAQLKRSLNAVELPRARAPEAYHRLDALVDQMNVETPTLLLAELPVPNAFAIGGGTGTIVVDRRLFRLLSAAEFEGLLAHELAHLETRDALVQTVAYSFVQTLVGLIGLALFPIVVLTGGIARSLALLRGDPSSWSRSWLGRAQRYSLQVVAGLGFAVTLLLLGYSRRRELAADDRAVEITGNPVGLARALAKIEQASTPDPGLLRQVYVHSEADNELSRLLSTHPPIDERMQRLQDRAQYGNFTKSSERPSSRR | failed
8 | MAVYANTSVQDFYEFWLEEVKKKSLSYNSYYSFKKTVQNYILPLYGRLSMGKLRKNHVKRIYKKTYETSPSVAKIVKTVLTTSFKYALRYGYVEEDYVTGLKWNRVILEHHHHHH | failed
9 | MAWNQPGNNGQDRDPWGSSKPGGNSEGNGNKGGRDQGPPDLDDIFRKLSKKLGGLGGGKGTGSGGGSSSQGPRPQLGGRVVTIAAAAIVIIWAASGFYTIKEAERGVVTRFGKFSHLVEPGLNWKPTFIDEVKPVNVEAVRELAASGVMLTSDENVVRVEMNVQYRVTNPEKYLYSVTSPDDSLRQATDSALRGVIGKYTMDRILTEGRTVIRSDTQRELEETIRPYDMGITLLDVNFQAARPPEEVKAAFDDAIAARENEQQYIREAEAYTNEVQPRANGQAQRILEEARAYKAQTILEAQGEVARFAKLLPEYKAAPEITRERLYIETMEKVLGNTRKVLVNDKGGNLMVLPLDQMLKGGNAPAAKSDNGASNLLRLPPASSSTTSGASNTSSTSQGDIMDQRRANAQRNDYQRQGE | failed
10 | MAYDSRLPEQRDPATDPSANYDYQGDSVNRPDLVSALEQRVDGDVRFDTYTRELFATDASAYEQLPIGVVSPVSTEDVVAVMEYCAAEDIPVLPRGGGTSLAGQAVNEAVVLDFKRYMDE | not failed
11 | MAYITYQQYLDLYGTCPISEEEFPVYAGLASDMIDSITRYRIVEGGGISALPSILQTLVQKAAAAQVLYFTQIGLETVLTGQAGQSFTVGKVSVSGGALSSTTTKPGALMVSPFALSLLEQTPLMERGVHVCSDRFLNPFWGILEHHHHHH | failed
12 | MAYNPKILQKPKEGEEITIKDNKLHVPNHPIIPFIEGDGIGSDITPAMIKVVDSAVQKAYKGEKKIAWYEVFVGEKCYQKFKDYKELSPEEQWLLPDTIEAINHYKVSIKGPLTTPIGEGFRSLNVALRQKMDLYVCLRPVRWYGSPSPVKEPQKVDMVIFRENSEDIYAGIEWQEGSAEAKKLIHFLQNELKVKKIRFPESSGIGVKPISKEGTERLVRKAIEYAIDNDKPSVTFVHKGNIMKYTEGAFMKWGYALAQKEFNAQVIDKGPWCSLKNPKNGKEIIIKDMIADAFLQQILLRPSEYSVIATMNLNGDYISDALAAMVGGIGIAPGANLNDTVGMFEATHGTAPKYAGLDKVNPGSIILSAEMMLRHMGWVEAADLIVSAMEKAIKSKKVTYDFARLMDGAKEVKCSEFASVMIENM | failed
13 | MAYSACFLHQSALASSAARSSSSSSSQRHVSLSKPVQIICKAQQSHEDDNSAVSRRLALTLLVGAAAVGSKVSPADAAYGEAANVFGKPKTNTDFLPYNGDGFKVQVPAKWNPSKEIEYPGQVLRFEDNFDATSNLNVMVTPTDKKSITDYGSPEEFLSQVNYLLGKQAYFGETASEGGFDNNAVATANILESSSQEVGGKPYYYLSVLTRTADGDEGGKHQLITATVNGGKLYICKAQAGDKRWFKGARKFVESAATSFSVA | failed
14 | MAYTDPAQRNQVTVLQVGYSRQEEGDESAMRANCTCTLVRCRDGTNIIVDTLTAWDGDHLRSLLGQQGLGVDDIHVVVCSHGHSDHIGCNYLFQKARMHLVGACASHHDLYMDHLGSGNPDEQLALDSNAEVVVRRSPGHTLSCVSVLVENSQLGGRVGITGDLFERREDIDDENIWMDAGSENEKVQREERSKMAQLCEFIIPGHGPMFSVTQSMRCKLKEDATSNT | failed
15 | MAYVLTETSAGYALLKASDKKIYKSSSLIQDLDSSDKVLKEFKIAAFSKFNSAANALEEANSIIEGKVSSQLEKLLEEIKKDKKSTLIVSETKLANAINKLGLNFNVVSDAVTLDIYRAIKEYLPELLPGMSDNDLSKMSLGLAHSIGRHKLKFSADKVDVMIIQAIALLDDLDKELNTYAMRCKEWYGWHFPELAKIVTDSVAYARIILTMGIRSKASETDLSEILPEEIEERVKTAAEVSMGTEITQTDLDNINALAEQIVEFAAYREQLSNYLSARMKAIAPNLTQLVGELVGARLIAHSGSLISLAKSPASTIQILGAEKALFRALKTKHDTPKYGLLYHASLVGQATGKNKGKIARVLAAKAAVSLRYDALAEDRDDSGDIGLESRAKVENRLSQLEGRDLRTTPKVVREAKKVEMTEARAYNADADTAKAASDSESDSDDEEEEKKEKKEKKRKRDDDEDSKDSKKAKKEKKDKKEKKEKKEKKEKKEKKEKKEKKSKKEKKEKK | failed

From a protein production outcome set (Wang et al. 2014)
